The labels stand for the following.
B1: CD2-associated protein, residues 1 to 59; numbered along this chain, Q9Y5K6 (parent)
chain: MVDYIVEYDYDAVHDDELTIRVGEIIRNVKKLQEEGWLEGELNGRRGMFPDNFVKEIKR

± gives the uncertainty stated by the source.

These results are taken from the Human Domainome abundance scans (Beltran et al. 2025).

The series covers variants of B1. Nature of the series: abundance fitness (aPCA) (normalised: wild type 0, dead -1); higher = more abundant; growth selection in yeast, the domain comes from the species named. Particulars: Homo sapiens.
Regarding MVDYIVEYRYDAVHDDELTIRVGEIIRNVKKLQEEGWLEGELNGRRGMFPDNFVKEIKR [D9R], the abundance fitness is -0.417 ± 0.11.

For the variant MVDYIVEYGYDAVHDDELTIRVGEIIRNVKKLQEEGWLEGELNGRRGMFPDNFVKEIKR [D9G], the abundance fitness was -0.242 ± 0.096.

With MVDYIVEYCYDAVHDDELTIRVGEIIRNVKKLQEEGWLEGELNGRRGMFPDNFVKEIKR [D9C], the abundance fitness was -0.671 ± 0.37.

In the case of MVDYIVEYKYDAVHDDELTIRVGEIIRNVKKLQEEGWLEGELNGRRGMFPDNFVKEIKR [D9K], the abundance fitness is -0.369 ± 0.32.

In the case of MVDYIVEYNYDAVHDDELTIRVGEIIRNVKKLQEEGWLEGELNGRRGMFPDNFVKEIKR [D9N], the abundance fitness was -0.276 ± 0.4.

Consider MVDYIVEYSYDAVHDDELTIRVGEIIRNVKKLQEEGWLEGELNGRRGMFPDNFVKEIKR [D9S], for which the abundance fitness was -0.172 ± 0.13.

With MVDYIVEYLYDAVHDDELTIRVGEIIRNVKKLQEEGWLEGELNGRRGMFPDNFVKEIKR [D9L], the abundance fitness was -0.92 ± 0.24.

As for MVDYIVEYAYDAVHDDELTIRVGEIIRNVKKLQEEGWLEGELNGRRGMFPDNFVKEIKR [D9A], the abundance fitness was -0.091 ± 0.14.

In the case of MVDYIVEYEYDAVHDDELTIRVGEIIRNVKKLQEEGWLEGELNGRRGMFPDNFVKEIKR [D9E], the abundance fitness is -0.346 ± 0.12.

As for MVDYIVEYVYDAVHDDELTIRVGEIIRNVKKLQEEGWLEGELNGRRGMFPDNFVKEIKR [D9V], the abundance fitness was -0.77 ± 0.37.

As for MVDYIVEYTYDAVHDDELTIRVGEIIRNVKKLQEEGWLEGELNGRRGMFPDNFVKEIKR [D9T], the abundance fitness was -0.725 ± 0.21.

Consider MVDYIVNYDYDAVHDDELTIRVGEIIRNVKKLQEEGWLEGELNGRRGMFPDNFVKEIKR [E7N], for which the abundance fitness was -0.311 ± 0.17.

MVDYIVAYDYDAVHDDELTIRVGEIIRNVKKLQEEGWLEGELNGRRGMFPDNFVKEIKR [E7A]: the abundance fitness was -0.135 ± 0.079.

On to MVDYIVDYDYDAVHDDELTIRVGEIIRNVKKLQEEGWLEGELNGRRGMFPDNFVKEIKR [E7D], for which the abundance fitness was -0.256 ± 0.15.

With MVDYIVRYDYDAVHDDELTIRVGEIIRNVKKLQEEGWLEGELNGRRGMFPDNFVKEIKR [E7R], the abundance fitness was -0.087 ± 0.074.

As to MVDYIVYYDYDAVHDDELTIRVGEIIRNVKKLQEEGWLEGELNGRRGMFPDNFVKEIKR [E7Y], the abundance fitness was -0.18 ± 0.18.

Turning to MVDYIVHYDYDAVHDDELTIRVGEIIRNVKKLQEEGWLEGELNGRRGMFPDNFVKEIKR [E7H], the abundance fitness was -0.581 ± 0.35.

As for MVDYIVQYDYDAVHDDELTIRVGEIIRNVKKLQEEGWLEGELNGRRGMFPDNFVKEIKR [E7Q], the abundance fitness was -0.131 ± 0.11.

Take MVDYIVIYDYDAVHDDELTIRVGEIIRNVKKLQEEGWLEGELNGRRGMFPDNFVKEIKR [E7I]: the abundance fitness was 0.025 ± 0.15.

Regarding MVDYIVLYDYDAVHDDELTIRVGEIIRNVKKLQEEGWLEGELNGRRGMFPDNFVKEIKR [E7L], the abundance fitness was -0.004 ± 0.057.

As to MVDYIVVYDYDAVHDDELTIRVGEIIRNVKKLQEEGWLEGELNGRRGMFPDNFVKEIKR [E7V], the abundance fitness stood at 0.008 ± 0.072.

Consider MVDYIVPYDYDAVHDDELTIRVGEIIRNVKKLQEEGWLEGELNGRRGMFPDNFVKEIKR [E7P], for which the abundance fitness is -0.697 ± 0.13.

Take MVDYIVSYDYDAVHDDELTIRVGEIIRNVKKLQEEGWLEGELNGRRGMFPDNFVKEIKR [E7S]: the abundance fitness is -0.212 ± 0.094.

On to MVDYIVTYDYDAVHDDELTIRVGEIIRNVKKLQEEGWLEGELNGRRGMFPDNFVKEIKR [E7T], for which the abundance fitness is 0.028 ± 0.074.

For MVDYIVEYDCDAVHDDELTIRVGEIIRNVKKLQEEGWLEGELNGRRGMFPDNFVKEIKR [Y10C], the abundance fitness is -0.569 ± 0.22.

For MVDYIVEYDADAVHDDELTIRVGEIIRNVKKLQEEGWLEGELNGRRGMFPDNFVKEIKR [Y10A], the abundance fitness was -0.787 ± 0.14.

Regarding MVDYIVEYDDDAVHDDELTIRVGEIIRNVKKLQEEGWLEGELNGRRGMFPDNFVKEIKR [Y10D], the abundance fitness is -0.473 ± 0.46.

As for MVDYIVETDYDAVHDDELTIRVGEIIRNVKKLQEEGWLEGELNGRRGMFPDNFVKEIKR [Y8T], the abundance fitness was 0.123 ± 0.16.

Take MVDYIVEIDYDAVHDDELTIRVGEIIRNVKKLQEEGWLEGELNGRRGMFPDNFVKEIKR [Y8I]: the abundance fitness was 0.184 ± 0.2.

MVDYIVEKDYDAVHDDELTIRVGEIIRNVKKLQEEGWLEGELNGRRGMFPDNFVKEIKR [Y8K]: the abundance fitness was found to be 0.057 ± 0.12.

As for MVDYIVEGDYDAVHDDELTIRVGEIIRNVKKLQEEGWLEGELNGRRGMFPDNFVKEIKR [Y8G], the abundance fitness was -0.026 ± 0.1.

As for MVDYIVERDYDAVHDDELTIRVGEIIRNVKKLQEEGWLEGELNGRRGMFPDNFVKEIKR [Y8R], the abundance fitness came to 0.097 ± 0.098.

On to MVDYIVEEDYDAVHDDELTIRVGEIIRNVKKLQEEGWLEGELNGRRGMFPDNFVKEIKR [Y8E], for which the abundance fitness was -0.02 ± 0.099.

Consider MVDYIVELDYDAVHDDELTIRVGEIIRNVKKLQEEGWLEGELNGRRGMFPDNFVKEIKR [Y8L], for which the abundance fitness is -0.047 ± 0.084.

For the variant MVDYIVEHDYDAVHDDELTIRVGEIIRNVKKLQEEGWLEGELNGRRGMFPDNFVKEIKR [Y8H], the abundance fitness turned out to be 0.148 ± 0.23.

For MVDYIVESDYDAVHDDELTIRVGEIIRNVKKLQEEGWLEGELNGRRGMFPDNFVKEIKR [Y8S], the abundance fitness amounted to 0.013 ± 0.078.

Regarding MVDYIVECDYDAVHDDELTIRVGEIIRNVKKLQEEGWLEGELNGRRGMFPDNFVKEIKR [Y8C], the abundance fitness was found to be 0.096 ± 0.11.

On to MVDYIVEVDYDAVHDDELTIRVGEIIRNVKKLQEEGWLEGELNGRRGMFPDNFVKEIKR [Y8V], for which the abundance fitness is -0.154 ± 0.11.

As to MVDYIVEWDYDAVHDDELTIRVGEIIRNVKKLQEEGWLEGELNGRRGMFPDNFVKEIKR [Y8W], the abundance fitness is -0.139 ± 0.094.

Consider MVDYIVEQDYDAVHDDELTIRVGEIIRNVKKLQEEGWLEGELNGRRGMFPDNFVKEIKR [Y8Q], for which the abundance fitness worked out at 0.04 ± 0.12.

Turning to MVDYIVEPDYDAVHDDELTIRVGEIIRNVKKLQEEGWLEGELNGRRGMFPDNFVKEIKR [Y8P], the abundance fitness is -0.918 ± 0.34.

Consider MVDYIVEDDYDAVHDDELTIRVGEIIRNVKKLQEEGWLEGELNGRRGMFPDNFVKEIKR [Y8D], for which the abundance fitness was -0.197 ± 0.22.

MVDYIVEADYDAVHDDELTIRVGEIIRNVKKLQEEGWLEGELNGRRGMFPDNFVKEIKR [Y8A]: the abundance fitness was 0.002 ± 0.082.

For the variant MVDYIVEMDYDAVHDDELTIRVGEIIRNVKKLQEEGWLEGELNGRRGMFPDNFVKEIKR [Y8M], the abundance fitness is -0.261 ± 0.12.

For the variant MVDYIVEFDYDAVHDDELTIRVGEIIRNVKKLQEEGWLEGELNGRRGMFPDNFVKEIKR [Y8F], the abundance fitness worked out at 0.078 ± 0.18.
